Assay: label from the status in PepcDB records
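Further: failed if final PepcDB status was selected cloned or expressed and not failed if soluble or beyond.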

Sequence | protein production
MFSIIIPIYNSENYLRYSIESVLNQSIGFKENIELILIDDGSVDSSPQICESFKNLYPNNIKIMKIENSGPSAARNCGLSNVSERSKFIGFLDSDDAFSQNALQSVYDFFCDSEHVNIAVLPVYYTGEKEGGHKLNNRFEKGTRVINILNDYKAIHFYIGGTFYRRHTLTSTVLFDESIKFWEDAIFFNQLLLKEKRYGAVAEGKYFYRKRKEQDSLVDRSWFNKKRYTYLLNECYMTLLMDSFNKYDIVLPYLQFLIVYHIKLFLYPNYRDVYKSVLDQQEQRVFVDDFIKVLKFIDPQFIKEQDMPMYYKEFMFHLLKENTEALENIKKERVLHSSCTVTSAKIKGLRLELTGHFINQYYEMKENDRIYIKYFKRLKKCKRKELKKTIEVWGYKLRDFRYAGFVVEIPIWAFAFDFVLKTPNDSLELNHVNIFKSLLTRVFKKRLEHHHHHH | not failed
MFSKIFKSFFYSWLATLFSTSLILCICFGNSHPVAIVNAQTPDAYKLVNQGIESYKKGDFHAAIKPWEAALDSYQKNNDFRNIAIINENLARTYQQLGNKSLTLSYWEKVKDYYHSQKNLQKVGRILTEIAQIYSNSGQTKKSYQSFMWCKYINLSNRECITNCPGTTR | failed
MFSLSTQTMSAVAQRHPQTPISTITASNRQSSLHFKINSNNPEAHAQMRSGDEKGAIASITIEFQSVEQLHLHLGIMHLLSGDMKGAIEDFNQAILINPNYAEAYKGRGVAKVQLGDEKEAIEDLQKAADIFQEQEETAKYQEVINIIRQINDK | failed
MFTGFGAASFSAPAKAAAQTNTLSENTNQSAAELVKNLYNTAYKGEMPQQAQGLTINKSTKGDVHAAFGEPERPVGGDNRFDLYHWNMGQPGYGFSYHKDMTISEIRYFGTGVERQLNLGGVTPEVLQKQLGPVNRVLTVPFTDEIDYVYDTGRYELHFVIGTDQTADHVNLKAKLEHHHHHH | not failed
MFTNSGVFIMYKILEKKEIAMRNTWYKIYAPHVAKKVQPGQFVIVRAFPNGERIPLTPIMWDREEGWIVLVAFTKGKTTMKMAMELKEGDEILNVAGPLGNPAPMEKFGKILAIGAYVGIAEVYPIAKAWQEIGNDVTTLHVTFEPMVILKDYFEKAVSRHIVEPVKIDQEKSFQENTKNVTKALTAKVKELLDNENWDLVFMVGPPGDQKAVFEVVKKYGIPMKVDLHPIMVDGTGMCGACRVTVGGEVKFACVDGPEFDAYLVDWDELIHRVGFYSKLEKLALEKYMEELKAKGVI | failed
MFVGHLPGAYLIFRVVTPRIERMAFTAAMLGAIAPDLDMLRFYFVDGRAFHHHEYLTHRPILWTGLLLCGVLIGMRSRRIGVPLAFFGAGGLVHMLLDSIAGKIAWAWPVSDFAAPLVVVPATQSHWILSFLSHWTFAVELGITVLALVLWRWLPRRATARR | failed
MFWTELCFILVALMIGARIGGVFLGMVGGLGVGVMVFIFGLTPSTPPIDVILIILSVVLAAASLQASGGLDLLVKLAEKILRRHPRYITLLAPFICYIFTFMSGTGHVVYSLLPVISEVARDSGIRPERPLSISVIASQQAITASPISAAMAAMIGLMAPLGVSISTIMMICVPATLIGVAMGAIATFNKGKELKDDPEYQRRLAEGLIKPAQKESKNTVVTSRAKLSVALFLTSAIVIVLLGLIPALRPMVETAKGLQPLSMSAAIQITMLSFACLIVLLCRPQVDQIISGTVFRAGALAIVCAFGLAWMSETFVNGHIALIKAEVQTLLQQHTWLIAIMMFFVSAMVSSQAATTLILLPLGLALGLPAYALIGSWPAVNGYFFIPVAGQCLAALAFDDTGTTRIGKYVLNHSFMRPGLVNVIVSVIVGLLIGKMVLA | failed
MFYTTKSSMNQHNIFFGSSHVVVPVTKPFPFSLDGHVEDEDNLESQYLQWLEERVDENNNINDDQSVGERDVGDDDIDRLADKFIARCHEKFLLEKVESYRRFQDMLARSL | failed
MGAAAAPEVNMELVGHFGGTTDAVDVAGNYAYVGQGQDFLILDITNPSSPVLVSKIMTEGFVRDIKVSRNYAYVADDDNGLVIVDISNPSSPTLKGSYNIPGYTYCITVSGNYAYVADNDGLVIVDISNPSDPILKGRYAGPTGDVAVYGNYAYVADWGNGLMIVDISNPSSPVLKGSYDTAGDIYGVSISGNYAYVADGDTGLVIVDISNPSSPTLKGNYNTAGIACDVSVLGNYAYVADNDNGLVIVDISDPSSPVLKGNGSTTGYAHGIEVSGNYAYVANSNTGLVIVDISNPSSPTLKGSCDTIVRAKSIAVSGNYAYIADWDNGLVIVDISNPSSPFLKGSCDTPRSAQGVAVSGNYAYVADDDGLVIVDISNPSFPILNKSYNTGGWAQGITVSGNYAYVIDMANGIFIVDISNPSSPILEGMYDTSPIIIENYDYTGSIWSVSVSGNYAYVADEGNGLLIVDISNPSSPILKGSYDTAGLAYDVAVSGNYAYVADSKNGLAIIDISNPSSPILVGNYNTSGYAECVSISGNYAYVAVDDSLVVVDISNPSSPILKGLYAGSAGDIAVSGNYVYASEGVNGLVILKANPESAFTVADFSSNITSGYAPLSIQFNDHSQNATSWNWDFGDGYNSTNQNPIHTYSSAGTYTVNLTVINENRTASKVAKIFVLNTSLEHHHHHH | failed
MGAAKPIFVEHSIVIDRPAQQVYDYWRKLENLPQIMSHLESVTVLDDKRSRWVAKAPLGTHVEWEAEVVNDKPGERIGWHSLPGATVDNAGSVQFESLPDDKTRVHVALSYRPPAGPLGAAVAKLFGEEPSQQIAEDLQKFKATFEGLEHHHHHH | failed
MGAGSQTTGAGQKKVQTITVGTGTQFPNICFIDEKGDLTGYDVELIKELDKRLPHYKFTFKTMEFSNLLVSLGQHKVDIVAHQMEKSKEREKKFLFNKVAYNHFPLKITVLQNNDTIRGIEDLKGKRVITSATSNGALVLKKWNEDNGRPFEIAYEGQGANETANQLKSGRADATISTPFAVDFQNKTSTIKEKTVGNVLSNAKVYFMFNKNEQTLSDDIDKALQEIIDDGTLKRLSLKWLGDDYSKEQYLEHHHHHH | not failed
MGANLNSAYAAGVKIAIVMGSKSDWATMQFAADVLTTLNVPFHVEVVSAHRTPDRLFSFAEQAEANGLHVIIAGAGGAAHLPGMLAAKTLVPVLGVPVQSAALSGVDSLYSIVQMPRGIPVGTLAIGKAGAANAALLAAQILALHDTELAGRLAHWRQSQTDDVLDNPDPREEA | not failed
MGAVVVKDLRKRIGKKEILKGISFEIEEGEIFGLIGPNGAGKTTTLRIISTLIKPSSGIVTVFGKNVVEEPHEVRKLISYLPEEAGAYRNMQGIEYLRFVAGFYASSSSEIEEMVERATEIAGLGEKIKDRVSTYSKGMVRKLLIARALMVNPRLAILDEPTSGLDVLNAREVRKILKQASQEGLTILVSSHNMLEVEFLCDRIALIHNGTIVETGTVEELKERYKAQNIEEVFEEVVKCSENF | not failed
MGDASINIDKETVANYFVIKQGGPINRDHWTVTANTEEKTGEVSAAYPHNGQTISLIDGEINTFWHSKWQGGEVAPPYEIILDMGKENSVSQLGLIARQNALTSMNLEIYAGDDGETWNLIGKYFFDGSIKTEQMVPVKACDARWIRIYIPTLGSGSSVGHLAEIYVYGTDKLEHHHHHH | not failed
MGDREKNVGFAASLNILFTIIELIGGILTNSLALLADAMHDFADSLALIVAWFAEKKAKKPATSKMTFGYRRLSLLSAAFATIVLIAGSLFILSQAIPRLLNPEPVNAEGMFLIAIIGVTINGLGYFRLKKGISQNEKILSWHLLEDILGWVVLLIGSVIIGFWNQPIIDPIMTIGFTIFVLWGVFKNAKETFNLLLEGVPEYIDIDEVKESILSVEGTKAVHDLHIWSLEGETDILTAHVVVEDEYLARPDKMRQSIKSRLEKHQIEHSTLELESEGFCSGTECIFELKG | failed
MGDSAPARIDTLEIKLLFAGDIMTHGPQIESAKCEGGRVYDFSSSFDTLASRIGAADLAIGNLETTFAGAPYSGYPTFSSPDAMGEALKNAGFDVLTTANNHTADKGKKGIIRTLDMLDSLGIAHTGSYRDIFDRDKMTPLILEVKGVRIAILAYTYGTNGMPVPAPTWVDPIDTVMIKKDLLRADSLGADYRIVQIHWGIEYRKEPDSEQLELARKLHRYGADAIIGSHPHVVQGSQWLKSDSKTSFVIYSMGNFISNQRKPAATRGGMLLSLTLRKVGDRITTHPDYQYVFVNKRTPQGKRVYRLLPVDPFSSDTLPSLPPEEQRDYKEFAKYYQMIPLVLIEREDNRIRNRLQVSQRAFLEHHHHHH | failed
MGDTKVETISRLAQWRIENFGPCSFKKSDPFKVGIWNWHLSIERNRYLSVRLFPELSRVSKEQPPVAKFVLRVSNVGPNRRFYISPVYEKLLRTTDDCVWHVDSSFHGRFTIDVEFLDLKICPVNGGEASPVWPTDATMQSISTQTTLKCLSRMLEESILTDVIIHTADGTLSAHKAILSASSTVFKSMFHHDLMEKESSTIHIDDMSRESCMALLSYLYGNITQEEFWKHRLALLGAANKYDITDLKAACEESLMEDINSSNVLERLQEAWLYQLEKLKKGCLMYLFDFGKIYDVREEISSFFRQADRELMLEMFQEVLSVWKPV | failed
MGEGGEMGVGIFQIDMDWLHRWLRHRRGPGSGKTSGNRNLKPRLTPAAAQQDHRQMLCFMTLNAAVGVLIGICVGAALIFLDIGGLGARIGRAASPFVPVLLVVVPIASLFGAAAAASAILLMPYEKKFRDDDDDARGE | failed
MGEKELIRVGVVGTGYMGENHVRIYSEMEDVRLIGISDPNSSRVKELAARYETLPFSDHKKMFGKTNLDAISIAAPTTLHCPIVLDALEAGVDVLVEKPIADSVENATAMIESAEEMDRHLMVGHIERFNPAVLKLKEVVDSGVLGKIVSV | failed
MGFPRSIVLIAALLGGAVSGLTACSSFPFWSAGKEEDTDIKDEHADWGPAQFYAEAKHAMMDGSYDKAIKLYEKLEARYPFGDYATQAQIDVAFCYYKNNEPESAIAAVDRFIKLNPTEPHVDYAYYLRGLINYNRGIGFIDRWLPTDSSQRDPGSARDAYNDFETLLNKFPNSVYREDARQRAIALRNNLAMYDIHVADYYMRRRAYVAAIRRSAEVVQKYQRTQAIPHALRIMEDAYRQLDMPQMADDIARVYALNYAEGRLSKDEDYERTVMEEVWDFIGFDK | failed
MGGAGLDNAQNVRNQTQNQTKPIHVSDRNEAFNRHNENEQFGYVRYQKEQFDGEQQKTPVMNREETAHMISSLTVQLPHIQDAATLVTDREALVVYKTDSKNRELTADQVKKTAASVIPRYYHVYISDNPNHMQSVENYSNLGSGSRDIREIMSGTIQEMKTSPQGSPVSENENANGETRQDMKIDRNDKNARLEHHHHHH | not failed
MGGGNAQKSAMARAKNLEKAKAAGKGSQLEANKKAMSIQCKVCMQTFICTTSEVKCREHAEAKHPKADVVACFPHLKK | not failed
MGGNETRELPIINLSDKNLKQNTELWSFTRDSVREAMEHHGWFVAEYNNFPTGLHQSILEAAKELLDLPVEIKLKNENHKAGHGYITMMSDGQPVHEGLGIDQVNDVQQCRGFSRLMWPDDHDDNDRFCETVHAYAKMQAELEQLVIRMLFESYNVEKYTEKYIGGTRYLLRLLKYRRLPNGEPNRKFISHTDKSFISILHQNHITGLMLKSEKEDVWYHFTPSPTRFVVIAGDAIMAWSNDRIKACYHKVEMESVEMRYSLGFFSFQEGMISTPEEMVDKDHPLAYNPFHHDGLLEYYETLEVHLKAHRTMTKAYCGIP | failed

Source: a protein production outcome set (Wang et al. 2014)
